# According to patent US20200317817A1 (XOMA US, published 2020):
# T1: rat PTH1R on UMR106 cells (rat, UniProt P25961 27-591)
# T1 construct: whole, on cells; also called UMR106 (Endogenous Rat PTH1R); native rat PTH1R
# T1 sequence (looked up): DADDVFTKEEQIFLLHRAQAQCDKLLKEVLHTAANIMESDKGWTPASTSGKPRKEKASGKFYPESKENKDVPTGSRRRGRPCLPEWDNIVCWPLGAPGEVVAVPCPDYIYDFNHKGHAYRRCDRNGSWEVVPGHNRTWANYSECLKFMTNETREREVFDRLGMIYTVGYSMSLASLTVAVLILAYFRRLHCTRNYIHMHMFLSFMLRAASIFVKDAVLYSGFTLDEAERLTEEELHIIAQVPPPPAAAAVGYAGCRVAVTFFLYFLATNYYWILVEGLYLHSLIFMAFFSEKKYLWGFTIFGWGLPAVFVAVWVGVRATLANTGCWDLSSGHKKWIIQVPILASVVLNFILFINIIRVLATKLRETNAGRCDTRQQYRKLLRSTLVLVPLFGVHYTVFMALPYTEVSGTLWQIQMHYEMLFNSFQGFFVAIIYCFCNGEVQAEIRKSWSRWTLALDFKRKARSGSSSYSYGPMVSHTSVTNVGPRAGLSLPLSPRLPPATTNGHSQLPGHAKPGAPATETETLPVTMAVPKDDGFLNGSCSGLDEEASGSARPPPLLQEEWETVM
# T2: mouse PTH1R overexpressed on CHO cells (mouse, UniProt P41593 27-591)
# T2 sequence (looked up): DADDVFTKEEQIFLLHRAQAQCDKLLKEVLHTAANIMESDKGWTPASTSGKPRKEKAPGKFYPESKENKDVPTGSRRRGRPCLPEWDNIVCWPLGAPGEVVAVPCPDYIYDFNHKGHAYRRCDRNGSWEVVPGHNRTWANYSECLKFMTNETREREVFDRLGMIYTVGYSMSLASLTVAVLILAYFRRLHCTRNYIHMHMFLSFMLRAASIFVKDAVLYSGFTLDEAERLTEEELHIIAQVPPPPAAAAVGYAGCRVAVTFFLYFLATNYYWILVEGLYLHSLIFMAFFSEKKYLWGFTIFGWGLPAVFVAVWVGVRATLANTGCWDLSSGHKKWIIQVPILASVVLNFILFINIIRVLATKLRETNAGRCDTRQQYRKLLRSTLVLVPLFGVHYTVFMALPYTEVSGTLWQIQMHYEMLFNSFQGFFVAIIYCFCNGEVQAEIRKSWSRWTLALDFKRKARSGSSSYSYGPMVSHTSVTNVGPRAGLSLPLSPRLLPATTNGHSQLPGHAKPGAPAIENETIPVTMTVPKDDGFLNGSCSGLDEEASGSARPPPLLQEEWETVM
# T3: human PTH1R overexpressed on CHO cells (human, UniProt Q03431 27-593)
# T3 sequence (looked up): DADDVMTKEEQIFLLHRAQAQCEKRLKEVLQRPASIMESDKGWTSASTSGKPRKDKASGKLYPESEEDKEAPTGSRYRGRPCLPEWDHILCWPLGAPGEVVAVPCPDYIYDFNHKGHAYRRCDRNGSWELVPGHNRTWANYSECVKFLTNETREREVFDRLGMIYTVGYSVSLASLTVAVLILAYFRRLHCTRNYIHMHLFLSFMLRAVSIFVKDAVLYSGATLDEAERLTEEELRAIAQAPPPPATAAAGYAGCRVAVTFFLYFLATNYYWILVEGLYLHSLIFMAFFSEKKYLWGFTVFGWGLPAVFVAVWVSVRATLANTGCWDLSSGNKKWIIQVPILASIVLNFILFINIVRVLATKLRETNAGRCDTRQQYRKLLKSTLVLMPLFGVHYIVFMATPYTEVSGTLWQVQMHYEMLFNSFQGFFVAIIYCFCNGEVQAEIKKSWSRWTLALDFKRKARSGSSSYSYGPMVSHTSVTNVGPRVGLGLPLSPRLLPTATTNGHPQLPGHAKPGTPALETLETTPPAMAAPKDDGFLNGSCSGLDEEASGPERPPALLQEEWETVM
# T4: recombinant N-terminal extracellular domain of the human PTH1R receptor (human, UniProt Q03431 27-188, limits assumed)
# T4 construct: domain: N-terminal extracellular domain; Bought reagent; also called N-ECD PTH1R; PTH1R N-terminal ECD
# T4 sequence (looked up): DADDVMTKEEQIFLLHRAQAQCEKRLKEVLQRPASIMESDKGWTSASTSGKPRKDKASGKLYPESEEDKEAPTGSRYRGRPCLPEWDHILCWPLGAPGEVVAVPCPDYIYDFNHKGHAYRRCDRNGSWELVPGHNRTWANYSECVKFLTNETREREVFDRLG
# T5: human PTH1R on Saos-2 cells (endogenous) (human, UniProt Q03431 27-593)
# T5 sequence (looked up): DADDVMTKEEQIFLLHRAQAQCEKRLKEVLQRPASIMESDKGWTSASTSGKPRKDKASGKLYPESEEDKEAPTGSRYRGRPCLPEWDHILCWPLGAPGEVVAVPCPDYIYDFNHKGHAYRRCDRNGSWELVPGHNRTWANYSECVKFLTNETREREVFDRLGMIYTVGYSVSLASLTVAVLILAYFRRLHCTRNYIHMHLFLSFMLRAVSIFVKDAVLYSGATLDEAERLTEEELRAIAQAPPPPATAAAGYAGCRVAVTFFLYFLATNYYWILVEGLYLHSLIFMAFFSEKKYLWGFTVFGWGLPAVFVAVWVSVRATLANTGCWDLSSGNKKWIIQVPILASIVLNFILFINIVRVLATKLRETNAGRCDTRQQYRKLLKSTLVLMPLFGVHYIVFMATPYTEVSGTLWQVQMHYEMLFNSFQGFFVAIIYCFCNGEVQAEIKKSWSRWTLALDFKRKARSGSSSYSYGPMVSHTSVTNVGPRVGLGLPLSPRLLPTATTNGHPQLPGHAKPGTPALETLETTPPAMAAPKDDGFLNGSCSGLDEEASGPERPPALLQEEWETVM
# Columns and labels:
# [1] = molecular target: T1, rat PTH1R on UMR106 cells; test: flow cytometry, 1 hr at 4 C
# [2] = molecular target: T2, mouse PTH1R overexpressed on CHO cells; test: cell-based or functional assay
# [3] = molecular target: T3, human PTH1R overexpressed on CHO cells; test: cell-based or functional assay
# [4] = molecular target: T4, recombinant N-terminal extracellular …; test: SPR, IgG captured, ECD injected
# Experimental: An anti-human IgG-Fc CMS sensor chip (GE Healthcare) was prepared using standard amine coupling as described by the manufacturer's protocol for the capture Ab on a BIACORE 4000 system (GE Healthcare). Briefly, the chip surface was activated with a 10 minute injection at 10 μL/minute of a freshly mixed 1:1 solution of 0.1 M N-Hydroxysuccinimide (NHS) and 0.4 M 1-Ethyl-3-(3-dimethylaminopropyl) carbodiimide hydrochloride (EDC). Following the activation injection, 15 ug/mL anti-human IgG-Fc antibody in acetate pH 4.5 was injected at 10 μL/minute for 10 minutes to achieve a high density capture surface. 7 minutes of 1M Ethanolamine hydrochloride-NaOH pH 8.5 was injected to block the surface. The NHS, EDC, and Ethanolamine used were from the BIACORE Amine Coupling Kit.
# Kinetic Analysis was performed using HBS-EP+(Teknova) with 2.5 mg/mL BSA (Sigma Aldrich, St. Louis Mo.). Antibodies were diluted to 0.5 μg/mL and captured to achieve a surface density of 100 to 200 RU. […] Injections were performed at 30 μL/minute for 240 seconds with a 360 second dissociation time. Regeneration was then performed with one 60 second injection 3M MgCl.
# The data were analyzed using BIACORE 4000 Evaluation Software and was double referenced by subtracting both the blank flow cell data and the averaged bracketing blank injections. The data was fit by simultaneously fitting the an off-rate (kd) and on-rate (kₐ), and calculating the KD as KD=kd/kₐ.
# [5] = molecular target: T2, mouse PTH1R overexpressed on CHO cells; test: flow cytometry on CHO cells, 24 hr at 4 C
# Experimental: (§1) To characterize antibody binding to PTH1R, cells were labeled with either CellTrace™ CFSE or CellTrace™ Violet. Unlabeled CHOK1 parent, CHO human PTH1R labeled with CellTrace™CFSE, and CHO mouse PTH1R labeled with CellTrace™Violet were pooled together and stained with increasing concentrations of antibody. Antibodies were incubated for 24 hr at 4° C. followed by two washes with FACS Buffer (0.5% BSA, 0.1% NaN3 in DPBS). Cells were then incubated with Allophycocyanin (APC) AffiniPure F(ab′)₂ Fragment Goat Anti-Human IgG (H+L) (Jackson ImmunoResearch, West Grove, Pa.) for 20 minutes at 4° C. Followed by two washes, cells were resuspended in FACS Buffer. Samples were acquired using BD Cytometer (BD Biosciences, San Jose, Calif.) and data were analyzed using FlowJo (FlowJo, LLC, Ashland, Oreg.) and Prism (GraphPad Software, La Jolla, Calif.).
# [6] = molecular target: T3, human PTH1R overexpressed on CHO cells; test: flow cytometry on CHO cells, 24 hr at 4 C
# Experimental: as §1
# [7] = molecular target: T2, mouse PTH1R overexpressed on CHO cells; test: cell-based or functional assay; remark: listed apart in the source
# [8] = molecular target: T1, rat PTH1R on UMR106 cells; test: cell-based or functional assay
# [9] = molecular target: T5, human PTH1R on Saos-2 cells (endogenous); test: cell-based or functional assay
# [10] = molecular target: T3, human PTH1R overexpressed on CHO cells; test: cell-based or functional assay; remark: listed apart in the source
Binder,binding result [1],"IC50, inhibition of PTHrP(1-34)-induced cAMP accumulation [2] [nM]","IC50, inhibition of PTH(1-34)-induced cAMP accumulation [3] [nM]","IC50, inhibition of PTHrP(1-34)-induced cAMP accumulation [3] [nM]",Kd [4] [nM],koff [4] [s⁻¹],kon [4] [M⁻¹ s⁻¹],"IC50, inhibition of PTH(1-34)-induced cAMP accumulation (curve does not reach a plateau) [3] [nM]",EC50 [5] [nM],EC50 [6] [nM],"EC50 of PTH(1-34), cAMP assay, with 267 nM IgG [7] [nM]","EC50 of PTH(1-34), cAMP assay, with 267 nM IgG [8] [nM]","EC50 of PTH(1-34), cAMP assay, with 267 nM IgG [9] [nM]","EC50 of PTHrP(1-34), cAMP assay, with 267 nM IgG [9] [nM]","EC50 of PTH(1-34), cAMP assay, with 267 nM IgG [10] [nM]"
"XPA.85.332 (antibody, V domains shown, Light-chain-shuffled variant of XPA.85.012) VH: QMQLVQSGAEVKKPGSSVKVSCKASGGTFSSYAISWVRQAPGQGLEWMGGIIPIFGTANYAQKFQGRVTITADESTSTAYMELSSLRSEDTAVYYCARGYVVARLWGQGTLVTVSS VL: ETTLTQSPAFMSASVGDRVTITCQASQDINNFLNWYQQKPGKAPKFLIYDASNLEKGVPSKFSGRGSGTEFTLTISSLQPEDIATYYCQQYRDFPLTFGQGTRLEIK",binds,2.3,12.1,5.03,0.71,0.0017,2.4e+06,,,,,,,,
"XPA.85.333 (antibody, V domains shown, Light-chain-shuffled variant of XPA.85.012) VH: QMQLVQSGAEVKKPGSSVKVSCKASGGTFSSYAISWVRQAPGQGLEWMGGIIPIFGTANYAQKFQGRVTITADESTSTAYMELSSLRSEDTAVYYCARGYVVARLWGQGTLVTVSS VL: DVVMTQTPLSLSVTPGQPASISCKSSQSLLHIDGKAYLYWYLQKPGQSPHLLIREVSTRFSGVSDRFTGSGSGTDFTLEISRVEAEDVGVYYCMQGLHLPPTFGQGTKVEIK",binds,2.04,11.4,5.61,0.3,0.00054,1.8e+06,,,,,,,,
"XPA.85.334 (antibody, V domains shown, Light-chain-shuffled variant of XPA.85.012) VH: QMQLVQSGAEVKKPGSSVKVSCKASGGTFSSYAISWVRQAPGQGLEWMGGIIPIFGTANYAQKFQGRVTITADESTSTAYMELSSLRSEDTAVYYCARGYVVARLWGQGTLVTVSS VL: DIVMTQTPLSLSVTPGQPASITCKSSQSLLHIDGKTYLYWFLQKPGQPPQLLIYEVSNRFSGVPDRFSGTGSGTDFTLKISRVEAEDVGVYYCMQSLHFPITFGPGTRLEIK",binds,3.32,,12.4,0.25,0.00021,860000,51.2,,,,,,,
"XPA.85.343 (antibody, V domains shown, Light-chain-shuffled variant of XPA.85.012) VH: QMQLVQSGAEVKKPGSSVKVSCKASGGTFSSYAISWVRQAPGQGLEWMGGIIPIFGTANYAQKFQGRVTITADESTSTAYMELSSLRSEDTAVYYCARGYVVARLWGQGTLVTVSS VL: DVVMTQTPLSLSVTPGQPASISCKSSQSLLHIDGRTYLYWYLQKAGQPPQLLIYEVSNRFSGVPDRFSGSGSGTDFTLKISRVEAEDVGVYYCMQSIHFPLTFGGGTKLEIK",binds,3.87,14.4,17.8,0.42,0.00045,1.1e+06,,,,,,,,
"XPA.85.338 (antibody, V domains shown, Light-chain-shuffled variant of XPA.85.017) VH: EVQLVETGGGVVRPGGSLRLSCAASGFTFSSSAMSWVRQTPGKELQWVSAITPGGEGTYYADVVKGRFTISRDNSKDTLYLQMDSLRAEDTAVYYCARDLYGSYGDAFDIWGQGTLVTVSS VL: SYELTQPPSVSVAPGQTATITCSGDKLGDKYASWYQQKPGQSPVLVMFENRDRPSGIPDRFSGSNSGNTATLTISGTQAMDEADYYCQAWDSSTAWVFGGGTQLTVL",,,,,0.43,0.00057,1.3e+06,,0.68,0.181,1.8,7.86,32.8,33,0.244
